Test results as given in patent US8357523B2, “Beta-glucosidase variant enzymes and related polynucleotides” (Codexis, Inc., priority 2009, dated 2013).
Positions count from the first letter of the chain named. Numbers in names are those of the source.

B1: Variant No. 366 (protein)
chain: SAAITQEGAAPAAMLHPEKWPRPATQRLIDPAVEKRVDALLKQLSVEEKVGQVIQGDIGTITPEDLRKYPLGSILAGGDSGPNGDDRAPPKEWLDLADAFYRVSLEKRPGHTPIPVLFGIDAVHGHNNIGSATIFPHNIALGMTRDPELLRRIGEVTAEEMAATGIDWTFAPALSVVRDDRWGRTYEGFSEDPEIVASYSAAIVEGFQGKYGSKDFMAPGRAVACAKHFLADGGTDQGRDQGDARISEDELIRIHNAGYPPAIDAGVLTVMASFSSWQGIKHHGHKQLLTDVLKGQMGFNGFIVGDWNAHDQVPGCTKFNCPTSLIAGLDMYMAADSWKQLYENTLAQVKDGTIPMARLDDAVRRILRVKVLAGLFEKPAPKDRPGLPGLETLGSPEHRAVGREAVRKSLVLLKNDKGTLPLSPKARVLVAGDGADNIGKQSGGWTISWQGTGNRNDEFPGATSILGGIRDAVADAGGSVEFDVAGQYKTKPDVAIVVFGEEPYAEFRGDVETLEYQPDQKQDLTLLKKLKDQGIPVVAVFLSGRPMWVNPELNASDAFVAAWLPGTEGGGVADVLFTDKAGKVQHDFAGKLSYSWPRTAAQTTVNRGDADYNPLFAYGYGLTYKDKSKVGTLPEESGVPAEARQN
modifications: catalytic domain; signal sequence F-10T
B2: T2A + A5T + I14M + N79D + G127N + A143M + H145R + V159E + A198S + V207F + F211Y + I222A + S225C + Q508R + A525T-des[A647-L663] (protein)
chain: B1 chain
B3: Variant No. 463 (protein)
chain: B1 chain with A3R, S73A, T169N, V177P, A202P, I203Y, A272L, Q287R, D311G, E512G
modifications: catalytic domain
B4: Variant No. 391 (protein)
chain: B1 chain with A3R, S73A, V177P, I203Y
modifications: catalytic domain
B5: Variant No. 94 (protein)
chain: STAIAQEGAAPAAILHPEKWPRPATQRLIDPAVEKRVDALLKQLSVEEKVGQVIQGDIGTITPEDLRKYPLGSILAGGDSGPNGDDRAPPKEWLDLADAFYRVSLEKRPGHTPIPVLFGIDAVHGHGNIGSATIFPHNIALGMTRDPELLRRIGEVTAEEMAATGIDWTFAPALSVVRDDRWGRTYEGFSEDPEIVASYSAAIVEGVQGKYGSKDFMAPGRIVASAKHFLADGGTDQGRDQGDARISEDELIRIHNAGYPPAIDAGVLTVMASFSSWQGIKHHGHKQLLTDVLKGQMGFNGFIVGDWNAHDQVPGCTKFNCPTSLIAGLDMYMAADSWKQLYENTLAQVKDGTIPMARLDDAVRRILRVKVLAGLFEKPAPKDRPGLPGLETLGSPEHRAVGREAVRKSLVLLKNDKGTLPLSPKARVLVAGDGADNIGKQSGGWTISWQGTGNRNDEFPGATSILGGIRDAVADAGGSVEFDVAGQYKTKPDVAIVVFGEEPYAEFQGDVETLEYQPDQKQDLALLKKLKDQGIPVVAVFLSGRPMWVNPELNASDAFVAAWLPGTEGGGVADVLFTDKAGKVQHDFAGKLSYSWPRTAAQTTVNRGDADYNPLFAYGYGLTYKDKSKVGTLPEESGVPAEARQNAGIYFRAGALRLPGRFL

Key:
Type in all cases: biochemical
[1] = Activity profile at different temperatures and pH using cellobiose (10 g/L) as substrate
Procedure: β-glucosidase activity was also determined using a cellobiose assay, which used cellobiose as substrate. In a total volume of 100 μL, 25 μL clear media supernatant containing CelA enzyme was added to 10 g/L cellobiose (Fluka Cat. No. 22150, Sigma-Aldrich, Inc., St. Louis, Mo.) in 100 mM sodium phosphate buffer (pH 6-7) or sodium acetate buffer (pH 5-5.5). The reaction was incubated at 45-70° C. for an appropriate time (25 minutes to overnight depending on the enzyme concentration) while shaking. Glucose production was determined using an enzymatic glucose assay (K-GLUC, Megazyme, Ireland). 10 μl of each reaction was added to 190 μl GOPOD reagent (supplied as part of the K-GLUC assay kit). The reaction was incubated at 45° C. for 20 minutes and the absorbance of the solution was measured at 510 nm. The GOPOD reagent contains 50 mM Potassium phosphate buffer pH7.4, 0.011M p-hydroxybenzoic acid, 0.008% w/v sodium azide, glucose oxidase (>12,000 U/L), peroxidase (>650 U/L) and 80 mg/L 4-aminoantipyrine. The glucose oxidase enzyme in the reagent reacts with any glucose present in the sample and produces hydrogen peroxide which then reacts with the 4-aminoantipyrine to produce a quinoneimine dye in quantities proportionate with the amount of glucose present and can be measured spectrophotometrically at 510 nm. Detectable β-glucosidase activity was observed under high throughput screening conditions (i.e., pH 7, 50° C.).
The native CelA activity profile was investigated at different temperatures (40-55° C.) and pH (5.0-8.0) using cellobiose (10 g/L) as a substrate. The experimental and analytical procedures are described in Example 5.
The activity profiles for Variant Nos. 264, 366, 391, 463, and 529 were determined at different temperatures and pH using cellobiose (10 g/L) as a substrate. The experimental and analytical procedures are described in Example 5, incubating the variant with cellobiose at temperatures in the range of 45-80. The results are depicted in FIGS. 7-11. […] The temperature and pH profile for this variant is depicted in FIG. 7. […] The temperature and pH profile for this variant is depicted in FIG. 8. […] The temperature and pH profile for this variant is depicted in FIG. 9. […] (with the pH 6 optimum determined by extrapolation). The temperature and pH profile for this variant is depicted in FIG. 10. […] The temperature and pH profile for this variant is depicted in FIG. 11.

[2] = High throughput cellobiose assay: fold improvement in cellobiase activity of CelA variants over a control enzyme (Tables 2A-2D, 3, 5, 6, 7); conditions: for activity (e.g., thermoactivity) over the wildtype A. irakense β-glucosidase, demonstrated indirectly: shown by improvement over a chain of controls, of which Variant No. 5 was directly compared to the wildtype
[3] = Saccharification of microcrystalline cellulose by Trichoderma reesei whole cellulase supplemented with β-glucosidase; conditions: 1 g/L TRWC alone or 25% of TRWC substituted with the β-glucosidase; 200 g/L Avicel, 100 g/L xylose, pH5.5, 55° C., 48 hours
Source text: FIG. 12 illustrates the impact of supplementing a commercially available Trichoderma reesei whole cellulose (“TRWC”) mixture with a CelA variant of the present invention. Compositions containing TRWC were supplemented with β-glucosdiases CelA Variant No. 264 (“Cel var1”), CelA Variant No. 366 (“Cel var2”), and a commercially available Aspergillus niger β-glucosidase (“ANBG”) in a ratio of 3:1 TRWC to β-glucosidase. The effectiveness of each composition at hydrolyzing microcrystalline cellulose was evaluated as described in Example 15. A plot of glucose and cellobiose concentration (g/L) vs. cellulase composition is depicted. The control composition was TRWC with no added β-glucosidase.
The impact of adding a CelA variant of the present invention to commercially available cellulose mixtures and microcrystalline cellulose, Avicel™, was evaluated. In the test reactions, 1 g/L Trichoderma reesei whole cellulose (“TRWC”, Sigma catalog #C85456-10KU (ATCC 26921)) was used to convert 200 g/L of the microcrystalline cellulose Avicel™ (200 mM Sodium acetate; 100 g/L xylose, pH5.5 and 55° C.). The amount of glucose was measured after 48 hours of reaction. As a comparison, 25% of the TRWC was replaced with a β-glucosidase: Variant No. 264 (“Cel var1”), Variant No. 366 (“Cel var2”), or with the commercially available cellobiase, Aspergillus niger beta-glucosidase (“ANBG”, Sigma catalog #49291-1G). […]

[4] = Enzyme stability: residual activity on pNPG after pre-incubation at high temperature and low pH; conditions: residual activity on pNPG at pH 7, 30° C.
Procedure: Residual activity is determined by exposing the enzyme to stress conditions of elevated temperature for a period of time and then determining the β-glucosidase activity. The β-glucosidase activity of the enzyme exposed to stress conditions (“a”) is compared to that of a control in which the enzyme is not exposed to the stress conditions (“b”), and residual activity is equal to the ratio a/b. Exemplary conditions for determining thermostability are provided in Examples 9 and 13. In one embodiment the enzymes are exposed to stress conditions of 50° C. at pH 5.5 or 55° C. at pH 5.0 or 55° C. at pH 5.5, or 65° C. at pH 5.0 for about 1 hour, and assayed at 30° C., pH 7, for about 0.1 hour.
A colorimetric pNPG (p-nitrophenyl-(β-D-glucopyranoside)-based assay was used for measuring β-glucosidase activity. In a total volume of 100 μL, 20 μL clear media supernatant containing β-glucosidase enzyme was added to 4 mM pNPG (Sigma-Aldrich, Inc. St. Louis, Mo.) solution in 50 mM sodium phosphate buffer at pH6.5. The reactions were incubated at pH 6.5, 45° C. for 1 hour. The reaction mixture was quenched with 100 μL of 1M sodium carbonate pH 11 solution. The absorbance of the solution was measured at 405 nm to determine the conversion of pNPG to p-nitrophenol. The release of p-nitrophenol (ε=17,700 M−1 cm−1) was measured at 405 nm to calculate β-glucosidase activity. Detectable β-glucosidase activity was observed under high throughput screening conditions (pH 7, 50° C.).
Four CelA variants and wildtype CelA were characterized to determine their stabilities at high temperature (55° C.) and low pH (pH5.5) using the method of Example 5A. The samples containing various CelA variant enzymes were pre-incubated at pH 5.5, 55° C. for 0-6 hrs. The residual enzyme activity after the thermal challenge was measured using pNPG as substrate at pH 7, 30° C. for 1 hr. […] The mutations listed in the table are indicated relative to SEQ ID NO: 4, the wildtype CelA. These sequences included residues GTS prior to the N-terminus of SEQ ID NO: 4 (prepared as described in Example 1). […]

Row | Molecule | pH of optimum activity [1] [pH] | temperature of optimum activity [1] [°C] | activity (e.g., thermoactivity) over the wildtype A. irakense β-glucosidase, demonstrated indirectly [2] | other results
1 | B1 | 6 | 66 | improved activity | 
2 | B2 |  |  |  | cellobiose and glucose combined yielded in saccharification reaction [3]: comparable results
3 | B3 |  | 69 | improved activity | pH of optimum activity (determined by extrapolation) ([1]; pH optimum determined by extrapolation): 6 pH
4 | B4 | 5.5 | 69 | improved activity | 
5 | B5 |  |  |  | activity (e.g., thermoactivity) over the wildtype A. irakense β-glucosidase ([2]; assay of Example 7): improved activity; % residual activity after 10 mins @ pH 5.5, 55° C. ([4]; pre-incubation 10 mins at pH 5.5, 55° C., 1 hr): 3%; % residual activity after 1 hour @ pH 5.5, 55° C. ([4]; pre-incubation 1 hour at pH 5.5, 55° C.): 0%; % residual activity after 6 hours @ pH 5.5, 55° C. ([4]; pre-incubation 6 hours at pH 5.5, 55° C., 1 hr): 0%
